Measured values taken from patent publication US20100028995A1, “Tetranectin Trimerizing Polypeptides” (Anaphore, Inc., priority 2004, published 2010).

Assay: Differential scanning calorimetry (VP-DSC) of tetranectin trimerisation domain and deletion peptides
Format: physicochemical
Conditions: for TM if N is free: in °C
Method: A characterization of the thermal stability of the trimerisation domain of tetranectin was obtained using DSC, both of the full length trimerisation domain and of deletion mutants.
The DSC scans were conducted on a VP-DSC from MicroCal LLC (Northampton, Mass.). For most of the scans a PBS buffer containing 110 mM NaCl and 40 mM NaPO4 was used. The pH was 7.4. The scans were made from 10 to 110° C. under approximately 25 psi at a scan rate of 1° C./min and a pre-scan period of 20 minutes. At least two scans with buffer in both chambers were conducted before removal of buffer from both chambers and the filling with new buffer and protein/peptide solution to the reference and sample chamber respectively.
Peptides were synthesized by an outside vendor and were based on the tetranectin sequence, however, minor modifications were applied. In particular, the residue corresponding to Cys 50 was changed to a Serine. Also, residue number 28 is in native TN polymorphic, being either a Ser or an Ala. In the following experiments, Ala was selected. In addition, the N and C-terminal of the peptides were modified to remove charge and mimic natural peptides, increase stability toward digestion by aminopeptidases and block against synthetase activity. In the N-terminal deletion class peptides the N-terminal is acetylated and the C-terminal is prolonged with a β-Ala and a Cys. For the C-terminal deletion class peptides the modification are amidation of the C-terminal and all the sequences start with Cys-βAla.
Since these peptides were lyophilized from a TFA solution the pH of the redissolved peptides had to be adjusted. This was done using our micro-pH meter from Unisense. The pH was adjusted to the same mV value as found for the buffer by adding small portions of 0.2 M NaOH to the solution immediately followed by mixing. In order to prevent disulphide-bridge dimerisation and possible stabilization of the multimeric structures all scanning of peptides were conducted in 5 mM β-mercaptoethanol. Prior to scanning and addition of β-mercaptoethanol the sample and buffer were extensively degassed under vacuum while stirring.
Trip-A (SEQ ID NO:42) was scanned at concentrations ranging from 2 mM to 0.125 mM, by lowering the concentration by a factor 2. This corresponds to protein concentrations from 12.7 mg-ml to 0.80 mg/mL. […] The difference between the two-state model and the non-2-state model can be stated as that the non-2-state model contains a contribution to the unfolding energy from co-operative stabilization of subunits. This leads to a sharpening of the peak. The parameter introduced relative to the 2-state model is called the ΔHv, or the van't Hoff enthalpy. The ratio between ΔHv and ΔH can be taken as a measurement of the number of subunits in one unfolding unit. The result is shown on FIG. 13 and Table 6. The data is from one representative scan and fitted to the non-2-state model.
The “dissociation with dCp” model describes a system where unfolding and dissociation of a multisubunit protein is simultaneous. The data is from one representative scan and fitted to the “dissociation with dCp” model. The ΔHm and dCp value is per trimer.

[1] = Trip-A 0.125 mM, dissociation with dCp model
[2] = Trip-A 0.125 mM, dissociation with dCp model, per trimer
[3] = Trip-A 0.125 mM, non-2-state model, PBS pH 7.4
[4] = Trip-A 0.25 mM, dissociation with dCp model
[5] = Trip-A 0.25 mM, dissociation with dCp model, per trimer
[6] = Trip-A 0.25 mM, non-2-state model, PBS pH 7.4
[7] = Trip-A 0.5 mM, Down, first scan
[8] = Trip-A 0.5 mM, Down, first scan, per trimer
[9] = Trip-A 0.5 mM, Down, sec. scan, per trimer
[10] = Trip-A 0.5 mM, Up, first scan, per trimer
[11] = Trip-A 0.5 mM, Up, second scan, per trimer
[12] = Trip-A 0.5 mM, dissociation with dCp model
[13] = Trip-A 0.5 mM, dissociation with dCp model, per trimer
[14] = Trip-A 0.5 mM, non-2-state model, PBS pH 7.4
[15] = Trip-A 1.0 mM, dissociation with dCp model
[16] = Trip-A 1.0 mM, dissociation with dCp model, per trimer
[17] = Trip-A 1.0 mM, non-2-state model, PBS pH 7.4
[18] = Trip-A 2.0 mM, dissociation with dCp model
[19] = Trip-A 2.0 mM, dissociation with dCp model, per trimer
[20] = Trip-A 2.0 mM, non-2-state model, PBS pH 7.4

Substance: Trip-A: full length trimerisation domain of tetranectin (SEQ ID NO:42) (SPGTEPPTQKPKKIVNAKKDVVNTKMFEELKARLDTLSQEVALLKEQQALQTVSLKGS)
- Rev. (%) (Table 10, N-terminal deletion peptides, Conc per construct): 97.6%
- ΔHm (kJ/mol(trimer)) (Table 10, N-terminal deletion peptides, dissociation with dCp model, Conc per construct): 319.2 ± 0.4 kJ/mol(trimer)
- TM (° C.) (Table 10, N-terminal deletion peptides, dissociation with dCp model, PBS pH 7.4, Conc per construct 0.32-0.63 (column Conc)): 84.7 ± 0.1 °C
- dCp (kJ/molK) (Table 10, N-terminal deletion peptides, per trimer, Conc per construct): 0.7 ± 0.1 kJ/molK
- Rev. (%) (Table 11, C-terminal deletion peptides, Conc per construct): 97.6%
- ΔHm (kJ/mol(trimer)) (Table 11, C-terminal deletion peptides, dissociation with dCp model, Conc per construct): 319.2 ± 0.4 kJ/mol(trimer)
- TM (° C.) (Table 11, C-terminal deletion peptides, dissociation with dCp model, PBS pH 7.4, Conc per construct 0.4-0.63 (column Conc)): 84.7 ± 0.1 °C
- dCp (kJ/molK) (Table 11, C-terminal deletion peptides, per trimer, Conc per construct): 0.7 ± 0.1 kJ/molK
- Rev. (%) [1]: 98.9%
- TM (° C.) (N = 3) [1]: 82.2 ± 0.3 °C
- N (free) [1]: 1.88
- TM if N is free [1]: 78.9 ± 0.3
- dCp (kJ/molK) [2]: 2.4 ± 0.2 kJ/molK
- ΔHm [2]: 66.2 ± 0.454 kcal/mol
- Reversibility (%) [3]: 94.2%
- TM (° C.) [3]: 73.1 ± 0.03 °C
- ΔH [3]: 15.2 ± 0.048 kcal/mol
- ΔHv [3]: 42.52 ± 0.14 kcal/mol
- ΔHv/ΔH [3]: 2.8
- Rev. (%) [4]: 98.2%
- TM (° C.) (N = 3) [4]: 81.4 ± 0.1 °C
- N (free) [4]: 2.48
- TM if N is free [4]: 81.2 ± 0.1
- dCp (kJ/molK) [5]: 3.3 ± 0.1 kJ/molK
- ΔHm [5]: 68 ± 0.17 kcal/mol
- Reversibility (%) [6]: 95.6%
- TM (° C.) [6]: 75.9 ± 0.1 °C
- ΔH [6]: 12.7 ± 0.096 kcal/mol
- ΔHv [6]: 46.03 ± 0.406 kcal/mol
- ΔHv/ΔH [6]: 3.6
- Rev. (%) [7]: 68.9%
- TM (° C.) (Trip-A 0.5 mM, Down, first scan (refolding), dissociation with dCp model): 79.8 ± 0.1 °C
- N (free) [7]: 0.66
- TM if N is free [7]: 81.4 ± 0.4
- dCp (kJ/molK) [8]: 3.5 ± 0.1 kJ/molK
- ΔHm [8]: -59.51 ± 0.311 kcal/mol
- Rev. (%) (Trip-A 0.5 mM, Down, sec. scan): 85.6%
- TM (° C.) (Trip-A 0.5 mM, Down, sec. scan (refolding), dissociation with dCp model): 80.2 ± 0.2 °C
- N (free) (Trip-A 0.5 mM, Down, sec. scan): 1.45
- TM if N is free (Trip-A 0.5 mM, Down, sec. scan): 85.6 ± 0.3
- dCp (kJ/molK) [9]: 6.9 ± 0.1 kJ/molK
- ΔHm [9]: -40.99 ± 0.526 kcal/mol
- Rev. (%) (Trip-A 0.5 mM, Up, first scan): 94.2%
- N (free) (Trip-A 0.5 mM, Up, first scan): 2.13
- TM if N is free (Trip-A 0.5 mM, Up, first scan): 84.0 ± 0.1
- TM (° C.) (Trip-A 0.5 mM, Up, first scan, dissociation with dCp model): 82.3 ± 0.1 °C
- dCp (kJ/molK) [10]: 1.7 ± 0.1 kJ/molK
- ΔHm [10]: 68.91 ± 0.14 kcal/mol
- Rev. (%) (Trip-A 0.5 mM, Up, second scan): 94.0%
- N (free) (Trip-A 0.5 mM, Up, second scan): 3.7
- TM if N is free (Trip-A 0.5 mM, Up, second scan): 80.3 ± 0.1
- TM (° C.) (Trip-A 0.5 mM, Up, second scan, dissociation with dCp model): 81.7 ± 0.1 °C
- dCp (kJ/molK) [11]: 2.0 ± 0.1 kJ/molK
- ΔHm [11]: 64.89 ± 0.072 kcal/mol
- Rev. (%) [12]: 97.6%
- TM (° C.) (N = 3) [12]: 84.7 ± 0.1 °C
- N (free) [12]: 3.93
- TM if N is free [12]: 83.5 ± 0.1
- dCp (kJ/molK) [13]: 0.67 ± 0.01 kJ/molK
- ΔHm [13]: 76.29 ± 0.096 kcal/mol
- Reversibility (%) [14]: 94.1%
- TM (° C.) [14]: 81.4 ± 0.1 °C
- ΔH [14]: 11.6 ± 0.096 kcal/mol
- ΔHv [14]: 55.59 ± 0.574 kcal/mol
- ΔHv/ΔH [14]: 4.8
- Rev. (%) [15]: 97.6%
- TM (° C.) (N = 3) [15]: 83.2 ± 0.1 °C
- N (free) [15]: 2.21
- TM if N is free [15]: 86.0 ± 0.1
- dCp (kJ/molK) [16]: 0.58 ± 0.02 kJ/molK
- ΔHm [16]: 72.49 ± 0.14 kcal/mol
- Reversibility (%) [17]: 97.7%
- TM (° C.) [17]: 86.5 ± 0.1 °C
- ΔH [17]: 8.82 ± 0.14 kcal/mol
- ΔHv [17]: 65.06 ± 1.29 kcal/mol
- ΔHv/ΔH [17]: 7.4
- Rev. (%) [18]: 95.6%
- TM (° C.) (N = 3) [18]: 85.2 ± 0.4 °C
- N (free) [18]: 5.67
- TM if N is free [18]: 77.0 ± 0.5
- dCp (kJ/molK) [19]: −7.1 ± 0.5 kJ/molK
- ΔHm [19]: 91.9 ± 0.813 kcal/mol
- Reversibility (%) [20]: 105 (!) %
- TM (° C.) [20]: 90.4 ± 0.1 °C
- ΔH [20]: 7.74 ± 0.072 kcal/mol
- ΔHv [20]: 66.9 ± 0.837 kcal/mol
- ΔHv/ΔH [20]: 8.6
- Rev (%) (Trip-A, pH 3.0): 93.1%
- TM (° C.) (Trip-A, pH 3.0 (100 mM NaCl 25 mM NaPO4)): 84.6 ± 0.2 °C
- dCp (kJ/molK) (Trip-A, pH 3.0, per trimer): 11.9 ± 0.3 kJ/molK
- ΔHm (Trip-A, pH 3.0, per trimer): 71.2 ± 0.693 kcal/mol
- Rev (%) (Trip-A, pH 4.0): 88.1%
- TM (° C.) (Trip-A, pH 4.0 (100 mM NaCl 25 mM NaAcetat)): 82.6 ± 0.1 °C
- dCp (kJ/molK) (Trip-A, pH 4.0, per trimer): 0.12 ± 0.07 kJ/molK
- ΔHm (Trip-A, pH 4.0, per trimer): 70.29 ± 0.22 kcal/mol
- Rev (%) (Trip-A, pH 7.4): 97.6%
- TM (° C.) (Trip-A, pH 7.4): 84.7 ± 0.1 °C
- dCp (kJ/molK) (Trip-A, pH 7.4, per trimer): 0.67 ± 0.05 kJ/molK
- ΔHm (Trip-A, pH 7.4, per trimer): 76.29 ± 0.096 kcal/mol
- Tm values (across concentrations 0.125-2 mM, dissociation with dCp model): 81-85 °C
- ΔHm (across concentrations, dissociation with dCp model): approximately 300 kJ/mole
- stability to pH (scans at pH 3.0, 4.0 and 7.4): exhibits stability to pH
